Experimental data published in the supplement of paper PMC11865577.

test system: TO-3-N3-2 (biotin conjugate); assay: pull-down binding Z-score (relative to library population); higher = stronger binding; conditions: RNA library: Library-2
In short: (§1)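 Heat-folded RNA library (1 μg, Cy5 or Cy3 end label, phosphate/NaCl/KCl buffer) was captured for 60 min at 25 °C on streptavidin beads displaying 100 pmol of biotin-conjugated small molecule, then washed three times. The bound fraction, eluted in hot SDS, was hybridised to a DNA barcode microarray at 55.5 °C for 20 h. Z-scores for binding were taken against the library mean and standard deviation after beads-only subtraction and trimmed averaging of replicate barcoded probes.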

| Sequence | pull-down binding Z-score |
| --- | --- |
| UUUUGCAAUUUUUUAAUGACAAAA [hsa-mir-548t] | -0.334 |
| UUUUGCAGUUGAAAGUAAUGGCAAAG [hsa-mir-548ao] | 0.00731 |
| UUUUGCAGUUUUUUUAAGUAAUUGCAAAA [hsa-mir-548f-3] | -0.385 |
| UUUUGCAUUUAAAGUAAUGGCCAAA [hsa-mir-548ay] | -0.285 |
| UUUUGCCAUUAAAAGUAAUGACAAAA [hsa-mir-548f-4] | -0.56 |
| UUUUGCCAUUACUUUCAAUGGCAAAA [hsa-mir-548aa-2] | -0.23 |
| UUUUGCCAUUACUUUUACAGGCAAAA [hsa-mir-548aa-1] | -0.412 |
| UUUUGCUAUUACUUUUAAAGGCAAAA [hsa-mir-548e] | 0.21 |
| UUUUGCUGUUACUUUUAAUGGCAAAA [hsa-mir-548az] | -0.34 |
| UUUUGCUUGUGUCUCUCCGCUCUGAGCAAUC [hsa-mir-96] | -0.0864 |
| UUUUGUCUGA [hsa-mir-553] | -0.242 |
| UUUUUCCAUUGUAAGUAAUGGGAAAA [hsa-mir-548f-5] | -0.567 |
| UUUUUCUUUACUUUUAAUGGCAAA [hsa-mir-548u] | -0.338 |
| UUUUUGCAUUACGUUCUAUGGCAAAA [hsa-mir-548g] | -0.00229 |
| UUUUUGUUUUUGAGACAGAGU [hsa-mir-4472-2] | 0.0401 |
| UUUUUUUCCAAUGAAAAUAACGAAACCUGUUAUUUCCCAUUGAGGGGGAAAAA [hsa-mir-4484] | -0.221 |
| UUUUUUUCGCUUUAUUUGUGACGAAAC [hsa-mir-543] | -0.278 |

test system: TO-3-N3 (biotin conjugate); assay: as above; conditions: RNA library: Library-2
In short: as §1

| Sequence | pull-down binding Z-score |
| --- | --- |
| UUUCUGUUGUCUGAAAGAAGAGAAA [hsa-mir-526b_518a-1] | -0.47 |
| UUUCUGUUGUCUGAAAGCAGA [hsa-mir-515-1_515-2] | 0.216 |
| UUUCUUAAAUUUUAUAUAUUGGAA [hsa-mir-1284] | 0.193 |
| UUUGCAUCUGGACGACGAAU [hsa-mir-409] | -0.355 |
| UUUGCCAAUAAAAGUAAUGACAAA [hsa-mir-548ah] | 0.507 |
| UUUGCCAGAGCUACAAAGGCAAA [hsa-mir-561] | -0.527 |
| UUUGCCAUUAAAAGUAACGACAAA [hsa-mir-548a-1] | -0.873 |
| UUUGCCAUUAAAAGUAAUGCGGCCAA [hsa-mir-548o-2] | -0.219 |
| UUUGCCAUUAAAAGUAAUGGUAAA [hsa-mir-548x-2] | -0.753 |
| UUUGCCAUUACUUUCAGUAGCAAA [hsa-mir-548c] | -0.131 |
| UUUGCCAUUACUUUCAGUGGCAAA [hsa-mir-548aq] | -0.975 |
| UUUGCCAUUAUAAUGGCAAA [hsa-mir-548ae-1] | -0.806 |
| UUUGCCAUUGAAAGUAAUGGCAAA [hsa-mir-548d-2] | -0.691 |
| UUUGCCGUCGAAAAUAAUGGCAAA [hsa-mir-548am] | -0.422 |
| UUUGCCGUUAAAAGUAAUGGCA [hsa-mir-548a-2] | -0.228 |
| UUUGCCGUUGCUUUUAAUGGUAAA [hsa-mir-548as] | -0.291 |
| UUUGCCUAUAAAAGUAAUGGCAAA [hsa-mir-548an] | -0.247 |
| UUUGCCUCUCUCAGAAAAUAGAGUCAAA [hsa-mir-4694] | 0.229 |
| UUUGCCUGUAAAAGUAAUGGCAAA [hsa-mir-548d-1] | -0.488 |
| UUUGCGUUACUUUCAAUCGUAAA [hsa-mir-548x] | -1.01 |
| UUUGCUACUGAAAGUAAUGGCAAA [hsa-mir-548z] | -0.614 |
| UUUGCUAUUACUUUUAAUGGUAAA [hsa-mir-548aj-2] | -0.666 |

| Sequence | pull-down binding Z-score |
| --- | --- |
| UUUGCUAUUUUUUUUUAAUGGCAAA [hsa-mir-548ac] | -0.607 |
| UUUGCUGUUGAACGUAGUGGUAA [hsa-mir-548ar] | 0.181 |
| UUUGGCUGCCAAAAGAAAUGGCCAAA [hsa-mir-548at] | -0.656 |
| UUUGGUAUUACUUUCAGUGGCAAA [hsa-mir-548j] | -0.416 |
| UUUGUACGGCACUGUGGCCACGUCCAAA [hsa-mir-497] | -0.121 |
| UUUGUAUUGUGGUUCAGUACCAUGCAAA [hsa-mir-6507] | -0.367 |
| UUUGUCAUUAAAGUAAUGCAAA [hsa-mir-548m] | 0.175 |
| UUUGUCAUUACUUUAAUUACUUUACGUUUCAUUAAUGACAAA [hsa-mir-548h-4] | -1.23 |
| UUUGUCAUUUAAAAGUAAUGGCAAA [hsa-mir-548ae-2] | 0.207 |
| UUUGUGGAUUUUGAAAAGGUGCAGG [hsa-mir-15a] | -0.119 |
| UUUGUGGGGCGAGGAGGGACCUGUACUAGCCAUGGUUCUGAUCACAUAUG [hsa-mir-6834] | 3.06 |
| UUUGUGUAAGGAAUUUUGUGGUCACAAA [hsa-mir-10a] | -1.06 |
| UUUGUUGAAAGAAUAAAUAAACCAACAAG [hsa-mir-1264] | -0.424 |
| UUUUAAUUUUUUUAAAA [hsa-mir-3606] | 0.211 |
| UUUUAGAA [hsa-mir-4443] | -0.568 |
| UUUUAUCAUUACUUUUAAUGGCAAAA [hsa-mir-548f-2] | 1.12 |
| UUUUCAGUUCCUGAGAUC [hsa-mir-4287] | -0.0736 |
| UUUUCAUGACAACCCUAUAUGGGAAAAUGUUGUGAAAA [hsa-mir-3646] | -0.839 |
| UUUUCCCUUUCUCUUGCCCUGAAA [hsa-mir-4509-1_4509-3_4509-2] | -0.261 |
| UUUUCCUGAGAAUAAGAGAAGGAAGG [hsa-mir-4455] | -0.477 |
| UUUUCGCUUUAUAUGUGACGAAAC [hsa-mir-495] | -0.605 |
| UUUUCUGGGA [hsa-mir-4456] | -0.426 |

| Sequence | pull-down binding Z-score |
| --- | --- |
| UUUUCUGUCCUGUCCACACAGAAAA [hsa-mir-1537] | -0.957 |
| UUUUCUUAAAUUGUAUAAAGAGAAAU [hsa-mir-944] | -0.406 |
| UUUUGAAAGUAACUUGGCGAAA [hsa-mir-548ad] | -0.179 |
| UUUUGACAUUACUUUCAAAGACAAAA [hsa-mir-548f-1] | -0.771 |
| UUUUGCAAUUUUUUAAUGACAAAA [hsa-mir-548t] | -0.494 |
| UUUUGCAGUUGAAAGUAAUGGCAAAG [hsa-mir-548ao] | -0.235 |
| UUUUGCAGUUUUUUUAAGUAAUUGCAAAA [hsa-mir-548f-3] | -0.492 |
| UUUUGCAUUUAAAGUAAUGGCCAAA [hsa-mir-548ay] | -0.735 |
| UUUUGCCAUUAAAAGUAAUGACAAAA [hsa-mir-548f-4] | -0.924 |
| UUUUGCCAUUACUUUCAAUGGCAAAA [hsa-mir-548aa-2] | 0.127 |
| UUUUGCCAUUACUUUUACAGGCAAAA [hsa-mir-548aa-1] | -0.497 |
| UUUUGCUAUUACUUUUAAAGGCAAAA [hsa-mir-548e] | 0.431 |
| UUUUGCUGUUACUUUUAAUGGCAAAA [hsa-mir-548az] | -0.418 |
| UUUUGCUUGUGUCUCUCCGCUCUGAGCAAUC [hsa-mir-96] | 0.441 |
| UUUUGUCUGA [hsa-mir-553] | -0.414 |
| UUUUUCCAUUGUAAGUAAUGGGAAAA [hsa-mir-548f-5] | -0.644 |
| UUUUUCUUUACUUUUAAUGGCAAA [hsa-mir-548u] | -1.03 |
| UUUUUGCAUUACGUUCUAUGGCAAAA [hsa-mir-548g] | -0.297 |
| UUUUUGUUUUUGAGACAGAGU [hsa-mir-4472-2] | 0.455 |
| UUUUUUUCCAAUGAAAAUAACGAAACCUGUUAUUUCCCAUUGAGGGGGAAAAA [hsa-mir-4484] | -1.12 |
| UUUUUUUCGCUUUAUUUGUGACGAAAC [hsa-mir-543] | -0.674 |
